Publication doi:10.1101/2022.06.23.497280 (bioRxiv, 2022)

Legend:
HU-B = biological target: T1, HU-B (UniProt P0ACF4 1-90, F47W); experiment: EMSA
T1 sequence: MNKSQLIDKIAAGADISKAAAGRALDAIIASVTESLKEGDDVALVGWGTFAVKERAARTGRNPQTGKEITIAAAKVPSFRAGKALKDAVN

HU-A = HU-A (UniProt P0ACF0 1-90, F79W); experiment: EMSA
SEC = biological target: the molecule itself; experiment: SEC

B1: 4WJ DNA (four-way junction, cruciform) (structured_DNA)
DNA 1: CCCTATAACCCCTGCATTGAATTCCAGTCTGATAA
DNA 2: GTAGTCGTGATAGGTGCAGGGGTTATAGGG
DNA 3: AACAGTAGCTCTTATTCGAGCTCGCGCCCTATCACGACTA
DNA 4: TTTATCAGACTGGAATTCAAGCGCGAGCTCGAATAAGAGCTACTGT
HU-B
  binding result: binds
HU-A
  binding result: binds

B2: HU-A (F79W mutant of HU-A) (natural protein, E. coli)
chain: MNKTQLIDVIAEKAELSKTQAKAALESTLAAITESLKEGDAVQLVGFGTFKVNHRAERTGRNPQTGKEIKIAAANVPAWVSGKALKDAVK
SEC
  stoichiometry N: 2
